Six molecules from US20250304643A1 (BAINAN BIOTECH, published 2025) can be followed below.

*1 amine or outer side, *2 acyl side, *3 side chain or, on linkers, in order; H or OH if unused. Where no end group is shown, it is not given here. Side-chain parts run from the residue outwards. [ ]: non-standard residue; d: D form. The star is where a group is joined. γGlu = O=C(O)[C@H](CCC(=O)[*:2])N[*:1]; Palmitoyl = CCCCCCCCCCCCCCCC(=O)*; Decanoyl = CCCCCCCCCC(=O)*; Aib = CC(C)(N)C(=O)O

Sequences and labels used below:
T1: human glucose-dependent insulinotropic polypeptide receptor (human, UniProt P48546 22-466)
T1 sequence (looked up): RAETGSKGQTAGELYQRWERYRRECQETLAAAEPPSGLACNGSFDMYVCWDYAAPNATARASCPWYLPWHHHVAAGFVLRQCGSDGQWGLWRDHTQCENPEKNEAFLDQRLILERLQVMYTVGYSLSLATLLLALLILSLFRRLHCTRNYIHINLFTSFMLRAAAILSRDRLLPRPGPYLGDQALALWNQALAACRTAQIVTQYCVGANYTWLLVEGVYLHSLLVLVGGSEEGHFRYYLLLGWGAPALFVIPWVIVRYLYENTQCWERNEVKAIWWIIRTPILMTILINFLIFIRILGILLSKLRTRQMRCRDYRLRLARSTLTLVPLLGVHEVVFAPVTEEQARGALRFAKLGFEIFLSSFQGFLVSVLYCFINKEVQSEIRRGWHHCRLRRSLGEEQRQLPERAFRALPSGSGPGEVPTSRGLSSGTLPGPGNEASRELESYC

T2: human glucagon-like peptide-2 receptor (human, UniProt O95838 1-553)
T2 sequence (looked up): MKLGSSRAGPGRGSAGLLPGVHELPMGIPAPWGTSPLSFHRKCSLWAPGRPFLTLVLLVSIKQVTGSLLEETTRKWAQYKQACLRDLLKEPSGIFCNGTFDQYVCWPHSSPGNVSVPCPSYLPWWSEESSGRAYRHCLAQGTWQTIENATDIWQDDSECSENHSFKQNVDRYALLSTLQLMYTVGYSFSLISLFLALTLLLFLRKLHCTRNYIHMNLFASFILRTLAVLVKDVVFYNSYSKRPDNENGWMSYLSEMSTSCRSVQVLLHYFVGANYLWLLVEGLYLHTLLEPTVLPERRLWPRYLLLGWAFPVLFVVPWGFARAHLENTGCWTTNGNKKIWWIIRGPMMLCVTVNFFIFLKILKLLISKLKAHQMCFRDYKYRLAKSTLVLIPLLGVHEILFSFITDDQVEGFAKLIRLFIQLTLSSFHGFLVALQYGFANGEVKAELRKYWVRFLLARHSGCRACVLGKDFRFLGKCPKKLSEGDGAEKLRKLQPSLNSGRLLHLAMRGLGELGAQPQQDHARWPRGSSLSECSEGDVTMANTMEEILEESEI

B1: Compound no. 28 (peptide)
peptide: H[Aib]DGK([γGlu-γGlu-Palmitoyl])FISDYST[Aib]LDNLAARDFINWLIQTKITK-OH
modifications: N-terminus assumed
SMILES: CCCCCCCCCCCCCCCC(=O)N[C@@H](CCC(=O)N[C@@H](CCC(=O)NCCCC[C@H](NC(=O)CNC(=O)[C@H](CC(=O)O)NC(=O)C(C)(C)NC(=O)[C@@H](N)Cc1c[nH]cn1)C(=O)N[C@@H](Cc1ccccc1)C(=O)N[C@H](C(=O)N[C@@H](CO)C(=O)N[C@@H](CC(=O)O)C(=O)N[C@@H](Cc1ccc(O)cc1)C(=O)N[C@@H](CO)C(=O)N[C@H](C(=O)NC(C)(C)C(=O)N[C@@H](CC(C)C)C(=O)N[C@@H](CC(=O)O)C(=O)N[C@@H](CC(N)=O)C(=O)N[C@@H](CC(C)C)C(=O)N[C@@H](C)C(=O)N[C@@H](C)C(=O)N[C@@H](CCCNC(=N)N)C(=O)N[C@@H](CC(=O)O)C(=O)N[C@@H](Cc1ccccc1)C(=O)N[C@H](C(=O)N[C@@H](CC(N)=O)C(=O)N[C@@H](Cc1c[nH]c2ccccc12)C(=O)N[C@@H](CC(C)C)C(=O)N[C@H](C(=O)N[C@@H](CCC(N)=O)C(=O)N[C@H](C(=O)N[C@@H](CCCCN)C(=O)N[C@H](C(=O)N[C@H](C(=O)N[C@@H](CCCCN)C(=O)O)[C@@H](C)O)[C@@H](C)CC)[C@@H](C)O)[C@@H](C)CC)[C@@H](C)CC)[C@@H](C)O)[C@@H](C)CC)C(=O)O)C(=O)O
B2: Compound no. 33 (peptide)
peptide: H[Aib]DGTFISDYK([γGlu-Palmitoyl])T[Aib]LDALAARDFIEWLIQTKITK-OH
modifications: N-terminus assumed
SMILES: CCCCCCCCCCCCCCCC(=O)N[C@@H](CCC(=O)NCCCC[C@H](NC(=O)[C@H](Cc1ccc(O)cc1)NC(=O)[C@H](CC(=O)O)NC(=O)[C@H](CO)NC(=O)[C@@H](NC(=O)[C@H](Cc1ccccc1)NC(=O)[C@@H](NC(=O)CNC(=O)[C@H](CC(=O)O)NC(=O)C(C)(C)NC(=O)[C@@H](N)Cc1c[nH]cn1)[C@@H](C)O)[C@@H](C)CC)C(=O)N[C@H](C(=O)NC(C)(C)C(=O)N[C@@H](CC(C)C)C(=O)N[C@@H](CC(=O)O)C(=O)N[C@@H](C)C(=O)N[C@@H](CC(C)C)C(=O)N[C@@H](C)C(=O)N[C@@H](C)C(=O)N[C@@H](CCCNC(=N)N)C(=O)N[C@@H](CC(=O)O)C(=O)N[C@@H](Cc1ccccc1)C(=O)N[C@H](C(=O)N[C@@H](CCC(=O)O)C(=O)N[C@@H](Cc1c[nH]c2ccccc12)C(=O)N[C@@H](CC(C)C)C(=O)N[C@H](C(=O)N[C@@H](CCC(N)=O)C(=O)N[C@H](C(=O)N[C@@H](CCCCN)C(=O)N[C@H](C(=O)N[C@H](C(=O)N[C@@H](CCCCN)C(=O)O)[C@@H](C)O)[C@@H](C)CC)[C@@H](C)O)[C@@H](C)CC)[C@@H](C)CC)[C@@H](C)O)C(=O)O
B3: Compound no. 29 (peptide)
peptide: H[Aib]DGTFISDYK([γGlu-Palmitoyl])T[Aib]LDNLAARDFINWLIQTKITK-OH
modifications: N-terminus assumed
SMILES: CCCCCCCCCCCCCCCC(=O)N[C@@H](CCC(=O)NCCCC[C@H](NC(=O)[C@H](Cc1ccc(O)cc1)NC(=O)[C@H](CC(=O)O)NC(=O)[C@H](CO)NC(=O)[C@@H](NC(=O)[C@H](Cc1ccccc1)NC(=O)[C@@H](NC(=O)CNC(=O)[C@H](CC(=O)O)NC(=O)C(C)(C)NC(=O)[C@@H](N)Cc1c[nH]cn1)[C@@H](C)O)[C@@H](C)CC)C(=O)N[C@H](C(=O)NC(C)(C)C(=O)N[C@@H](CC(C)C)C(=O)N[C@@H](CC(=O)O)C(=O)N[C@@H](CC(N)=O)C(=O)N[C@@H](CC(C)C)C(=O)N[C@@H](C)C(=O)N[C@@H](C)C(=O)N[C@@H](CCCNC(=N)N)C(=O)N[C@@H](CC(=O)O)C(=O)N[C@@H](Cc1ccccc1)C(=O)N[C@H](C(=O)N[C@@H](CC(N)=O)C(=O)N[C@@H](Cc1c[nH]c2ccccc12)C(=O)N[C@@H](CC(C)C)C(=O)N[C@H](C(=O)N[C@@H](CCC(N)=O)C(=O)N[C@H](C(=O)N[C@@H](CCCCN)C(=O)N[C@H](C(=O)N[C@H](C(=O)N[C@@H](CCCCN)C(=O)O)[C@@H](C)O)[C@@H](C)CC)[C@@H](C)O)[C@@H](C)CC)[C@@H](C)CC)[C@@H](C)O)C(=O)O
B4: Compound no. 34 (peptide)
peptide: Ac-H[Aib]DGTFISDYK([γGlu-Palmitoyl])T[Aib]LDNLAARDFINWLIQTKITK-OH
SMILES: CCCCCCCCCCCCCCCC(=O)N[C@@H](CCC(=O)NCCCC[C@H](NC(=O)[C@H](Cc1ccc(O)cc1)NC(=O)[C@H](CC(=O)O)NC(=O)[C@H](CO)NC(=O)[C@@H](NC(=O)[C@H](Cc1ccccc1)NC(=O)[C@@H](NC(=O)CNC(=O)[C@H](CC(=O)O)NC(=O)C(C)(C)NC(=O)[C@H](Cc1c[nH]cn1)NC(C)=O)[C@@H](C)O)[C@@H](C)CC)C(=O)N[C@H](C(=O)NC(C)(C)C(=O)N[C@@H](CC(C)C)C(=O)N[C@@H](CC(=O)O)C(=O)N[C@@H](CC(N)=O)C(=O)N[C@@H](CC(C)C)C(=O)N[C@@H](C)C(=O)N[C@@H](C)C(=O)N[C@@H](CCCNC(=N)N)C(=O)N[C@@H](CC(=O)O)C(=O)N[C@@H](Cc1ccccc1)C(=O)N[C@H](C(=O)N[C@@H](CC(N)=O)C(=O)N[C@@H](Cc1c[nH]c2ccccc12)C(=O)N[C@@H](CC(C)C)C(=O)N[C@H](C(=O)N[C@@H](CCC(N)=O)C(=O)N[C@H](C(=O)N[C@@H](CCCCN)C(=O)N[C@H](C(=O)N[C@H](C(=O)N[C@@H](CCCCN)C(=O)O)[C@@H](C)O)[C@@H](C)CC)[C@@H](C)O)[C@@H](C)CC)[C@@H](C)CC)[C@@H](C)O)C(=O)O
B5: Compound no. 32 (peptide)
peptide: H[Aib]DGTFISDYK([γGlu-Palmitoyl])TILDNLAARDFINWLIETKITK-OH
modifications: N-terminus assumed
SMILES: CCCCCCCCCCCCCCCC(=O)N[C@@H](CCC(=O)NCCCC[C@H](NC(=O)[C@H](Cc1ccc(O)cc1)NC(=O)[C@H](CC(=O)O)NC(=O)[C@H](CO)NC(=O)[C@@H](NC(=O)[C@H](Cc1ccccc1)NC(=O)[C@@H](NC(=O)CNC(=O)[C@H](CC(=O)O)NC(=O)C(C)(C)NC(=O)[C@@H](N)Cc1c[nH]cn1)[C@@H](C)O)[C@@H](C)CC)C(=O)N[C@H](C(=O)N[C@H](C(=O)N[C@@H](CC(C)C)C(=O)N[C@@H](CC(=O)O)C(=O)N[C@@H](CC(N)=O)C(=O)N[C@@H](CC(C)C)C(=O)N[C@@H](C)C(=O)N[C@@H](C)C(=O)N[C@@H](CCCNC(=N)N)C(=O)N[C@@H](CC(=O)O)C(=O)N[C@@H](Cc1ccccc1)C(=O)N[C@H](C(=O)N[C@@H](CC(N)=O)C(=O)N[C@@H](Cc1c[nH]c2ccccc12)C(=O)N[C@@H](CC(C)C)C(=O)N[C@H](C(=O)N[C@@H](CCC(=O)O)C(=O)N[C@H](C(=O)N[C@@H](CCCCN)C(=O)N[C@H](C(=O)N[C@H](C(=O)N[C@@H](CCCCN)C(=O)O)[C@@H](C)O)[C@@H](C)CC)[C@@H](C)O)[C@@H](C)CC)[C@@H](C)CC)[C@@H](C)CC)[C@@H](C)O)C(=O)O
B6: Compound no. 31 (peptide)
peptide: H[Aib]DGTFISDYK([γGlu-Decanoyl])TILDKLAARDFIEWLIATKITK-OH
modifications: N-terminus assumed
SMILES: CCCCCCCCCC(=O)N[C@@H](CCC(=O)NCCCC[C@H](NC(=O)[C@H](Cc1ccc(O)cc1)NC(=O)[C@H](CC(=O)O)NC(=O)[C@H](CO)NC(=O)[C@@H](NC(=O)[C@H](Cc1ccccc1)NC(=O)[C@@H](NC(=O)CNC(=O)[C@H](CC(=O)O)NC(=O)C(C)(C)NC(=O)[C@@H](N)Cc1c[nH]cn1)[C@@H](C)O)[C@@H](C)CC)C(=O)N[C@H](C(=O)N[C@H](C(=O)N[C@@H](CC(C)C)C(=O)N[C@@H](CC(=O)O)C(=O)N[C@@H](CCCCN)C(=O)N[C@@H](CC(C)C)C(=O)N[C@@H](C)C(=O)N[C@@H](C)C(=O)N[C@@H](CCCNC(=N)N)C(=O)N[C@@H](CC(=O)O)C(=O)N[C@@H](Cc1ccccc1)C(=O)N[C@H](C(=O)N[C@@H](CCC(=O)O)C(=O)N[C@@H](Cc1c[nH]c2ccccc12)C(=O)N[C@@H](CC(C)C)C(=O)N[C@H](C(=O)N[C@@H](C)C(=O)N[C@H](C(=O)N[C@@H](CCCCN)C(=O)N[C@H](C(=O)N[C@H](C(=O)N[C@@H](CCCCN)C(=O)O)[C@@H](C)O)[C@@H](C)CC)[C@@H](C)O)[C@@H](C)CC)[C@@H](C)CC)[C@@H](C)CC)[C@@H](C)O)C(=O)O

One experiment concerns the target T1, human glucose-dependent insulinotropic …. The experiment is described as follows: cell-based or functional assay.
With B1, the “Efficacy GIPR” value is 105%.
In the case of B2, the “Efficacy GIPR” value amounted to 101%.
On to B3, for which the “Efficacy GIPR” value was found to be 104%.
As to B4, the “EC50 (nM) GIPR” value is 10 nM and the “Efficacy GIPR” value came out at 75%.
Take B5: the “Efficacy GIPR” value was 89%.
With B6, the “Efficacy GIPR” value is 89%.

The target of another experiment is T2, human glucagon-like peptide-2 receptor. Kind of experiment: cell-based or functional assay.
With B1, the “Efficacy GLP-2R” value was 99%.
As to B2, the “Efficacy GLP-2R” value was found to be 97%.
B3: the “Efficacy GLP-2R” value turned out to be 124%.
As for B4, the “Efficacy GLP-2R” value amounted to 103%.
In the case of B5, the “EC50 (nM) GLP-2R” value amounted to 10 nM, the “Efficacy GLP-2R” value came out at 84% and the “logEC50 GLP-2R” value came to 8.
Regarding B6, the “Efficacy GLP-2R” value worked out at 90%.
